Test results: US20220073617A1 (Five Prime, published 2022)
Residue numbers refer to the chain shown, from its start. Names may count otherwise. “And” between values parts separate entries of the source, which are not always exact repeats. Equal values may be shown once. One block for each binder: values may come before it.

Assays:
[1] = biological target: T1, monovalent hVISTA-ECD (human VISTA extracellular domain with His tail) (human, UniProt Q9H7M9 33-193); assay: SPR, pH 6.0
T1 construct: analyte flowed over captured antibody; also called huVISTA-His
Method: (§1) Binding of several preparations of each of the '029 progeny clones and of the parent '029 antibodies, formatted as IgG1.3 antibodies, to human VISTA at pH 6.0 and 7.4 was measured by Surface plasmon resonance (SPR). SPR analysis was performed to measure koff and KD binding affinity measurements for VISTA Abs at acidic and neutral pHs using a Biacore® T100 instrument (GE Healthcare). Protein A (ThermoFisher Scientific catalog #21181) was diluted to 20 ug/ml in 10 mM sodium acetate pH 4.5 and immobilized onto flow cells of a CM5 biosensor following the manufacturer's amine coupling protocol (GE Healthcare), targeting 2,000 RU immobilization density of Protein A per flow cell. SPR experiments were conducted at 37° C. using PBST (137 mM sodium chloride, 2.7 mM potassium chloride, 10 mM phosphate buffer, 0.05% Tween® 20) running buffer at pH 7.4 and 6.0. Antibodies were diluted to 25 nM in PBST pH 7.4, and were captured across active biosensor flow cells at 5 ul/min for 60 seconds. […] Two 15 second injections of 10 mM glycine pH 1.5 were used to regenerate the Protein A capture surface between assay cycles. Rate constants ka (kₒₙ) and kd (koff) were derived from reference flow cell and 0 nM blank-subtracted sensorgrams, and were fit to a 1:1 binding model in Biacore® T200 Evaluation Software v.2.0. The affinity constant, KD was calculated as the ratio of rate constants koff/kₒₙ for each VISTA antibody. […]

[2] = biological target: T1, monovalent hVISTA-ECD (human VISTA …); assay: SPR, pH 7.4
Method: (§2) Binding of several preparations of each of the '029 progeny clones and of the parent '029 antibodies, formatted as IgG1.3 antibodies, to human VISTA at pH 6.0 and 7.4 was measured by Surface plasmon resonance (SPR). SPR analysis was performed to measure koff and KD binding affinity measurements for VISTA Abs at acidic and neutral pHs using a Biacore® T100 instrument (GE Healthcare). Protein A (ThermoFisher Scientific catalog #21181) was diluted to 20 ug/ml in 10 mM sodium acetate pH 4.5 and immobilized onto flow cells of a CM5 biosensor following the manufacturer's amine coupling protocol (GE Healthcare), targeting 2,000 RU immobilization density of Protein A per flow cell. SPR experiments were conducted at 37° C. using PBST (137 mM sodium chloride, 2.7 mM potassium chloride, 10 mM phosphate buffer, 0.05% Tween® 20) running buffer at pH 7.4 and 6.0. Antibodies were diluted to 25 nM in PBST pH 7.4, and were captured across active biosensor flow cells at 5 ul/min for 60 seconds. […] Two 15 second injections of 10 mM glycine pH 1.5 were used to regenerate the Protein A capture surface between assay cycles. Rate constants ka (kₒₙ) and kd (koff) were derived from reference flow cell and 0 nM blank-subtracted sensorgrams, and were fit to a 1:1 binding model in Biacore® T200 Evaluation Software v.2.0. The affinity constant, KD was calculated as the ratio of rate constants koff/kₒₙ for each VISTA antibody.

[3] = biological target: T1, monovalent hVISTA-ECD (human VISTA …); assay: SPR
Method: as §2

[4] = biological target: T1, monovalent hVISTA-ECD (human VISTA …); assay: SPR, pH 7.4; remark: listed apart in the source
Method: as §1

[5] = biological target: T1, monovalent hVISTA-ECD (human VISTA …); assay: SPR, pH 6.0; remark: listed apart in the source
Method: as §2

[6] = biological target: T1, monovalent hVISTA-ECD (human VISTA …); assay: SPR; remark: listed apart in the source
Method: as §1

T1 sequence (Q9H7M9 other isoform, or with tags, fused parts or gaps limits assumed): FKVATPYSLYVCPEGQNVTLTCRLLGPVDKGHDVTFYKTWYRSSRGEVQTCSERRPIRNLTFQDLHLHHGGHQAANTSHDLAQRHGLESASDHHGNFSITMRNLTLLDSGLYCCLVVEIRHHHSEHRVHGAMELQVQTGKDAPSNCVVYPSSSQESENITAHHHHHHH

Kd [1]: 0.644 nM and 0.751 nM
koff [1]: 0.00168 s⁻¹ and 0.00171 s⁻¹
kon [1]: 2.61e+06 M⁻¹ s⁻¹ and 2.28e+06 M⁻¹ s⁻¹
Kd [2]: 0.38 nM
kd improvement vs parent [2]: 6.8 fold
koff [2]: 0.00013 s⁻¹
kon [2]: 340000 M⁻¹ s⁻¹
pH 6.0/7.4 KD [3]: 2.7
pH 6.0/7.4 kd [3]: 10.2
Kd [4]: 0.665 nM and 0.737 nM
koff [4]: 0.00013 s⁻¹ and 0.00012 s⁻¹
kon [4]: 195000 M⁻¹ s⁻¹ and 163000 M⁻¹ s⁻¹
Kd [5]: 1 nM
kd improvement vs parent [5]: 81.7 fold
koff [5]: 0.0013 s⁻¹
kon [5]: 1.3e+06 M⁻¹ s⁻¹
B1: P1-063001 (41F11_LC_Mutant: V29D/A64G/R91T) (antibody, V domains shown)
VH: QVQLVESGGGLVKPGGSLRLSCAASGFTFSDYYMSWIRQAPGKGLEWVSYISNSGSPIYYADSVKGRFTISRDNAKNSLYLQMNSLRAEDTAVYYCARDLPGWYFDLWGRGTLVTVSS
VL: EIVLTQSPATLSLSPGERATLSCRASQSDSSYLAWYQQKPGQAPRLLIYDASNRATGIPARFSGSGSGTDFTLTISSLEPEDFAVYYCQQTNNWPRTFGQGTKVEIK
notes: also called P1-063001-5; P1-063001-6

Kd [1]: 55.8 nM
koff [1]: 0.0387 s⁻¹
kon [1]: 694000 M⁻¹ s⁻¹
Kd [4]: 2540 nM
koff [4]: 0.0352 s⁻¹
kon [4]: 13800 M⁻¹ s⁻¹
KD ratio (pH 7.4/pH 6.0) [6]: 45.5
B2: P1-065320 (41F11_VH_L96EF100aG VK_A64G) (antibody, V domains shown)
VH: B1 VH with L100E, F105G
VL: B1 VL with D29V, T91R

Kd [1]: 0.409 nM
koff [1]: 0.00221 s⁻¹
kon [1]: 5.41e+06 M⁻¹ s⁻¹
Kd [4]: 0.456 nM
koff [4]: 0.000236 s⁻¹
kon [4]: 517000 M⁻¹ s⁻¹
KD ratio (pH 7.4/pH 6.0) [6]: 1.11
B3: P1-065332 (41F11_VH_T28P/Y50W/S55E/A60H/Y100E VK_A64G) (antibody, V domains shown)
VH: B1 VH with T28P, Y50W, S56E, A61H, Y104E
VL: B1 VL with D29V, T91R
notes: Kabat positions; also called P1-065332-1

Kd [1]: 0.139 nM and 0.223 nM
koff [1]: 0.00114 s⁻¹ and 0.000909 s⁻¹
kon [1]: 8.19e+06 M⁻¹ s⁻¹ and 4.07e+06 M⁻¹ s⁻¹
Kd [2]: 0.15 nM
kd improvement vs parent [2]: 7.4 fold
koff [2]: 0.00012 s⁻¹
kon [2]: 780000 M⁻¹ s⁻¹
pH 6.0/7.4 KD [3]: 0.8
pH 6.0/7.4 kd [3]: 3.9
Kd [4]: 0.101 nM and 0.0675 nM
koff [4]: 6.9e-05 s⁻¹ and 4.05e-05 s⁻¹
kon [4]: 685000 M⁻¹ s⁻¹ and 600000 M⁻¹ s⁻¹
Kd [5]: 0.13 nM
kd improvement vs parent [5]: 233 fold
koff [5]: 0.00046 s⁻¹
kon [5]: 3.6e+06 M⁻¹ s⁻¹
B4: P1-063153 (41F11_HC_mutant: D31E/Y50W/S55E/Y100E) (antibody, V domains shown)
VH: B1 VH with D31E, Y50W, S56E, Y104E
VL: B1 VL with D29V, G64A, T91R
notes: Kabat positions; also called P1-063153-5

Kd [1]: 34.8 nM and 31.4 nM
koff [1]: 0.00726 s⁻¹ and 0.00818 s⁻¹
kon [1]: 209000 M⁻¹ s⁻¹ and 260000 M⁻¹ s⁻¹
Kd [2]: 75 nM
kd improvement vs parent [2]: 0.3 fold
koff [2]: 0.0032 s⁻¹
kon [2]: 43000 M⁻¹ s⁻¹
pH 6.0/7.4 KD [3]: 0.3
pH 6.0/7.4 kd [3]: 4
koff [4]: 0.00266 s⁻¹ and 0.0023 s⁻¹
Kd [5]: 22 nM
kd improvement vs parent [5]: 8.2 fold
koff [5]: 0.013 s⁻¹
kon [5]: 600000 M⁻¹ s⁻¹
B5: P1-064490 (41F11_VH_F27EY50EL96E) (antibody, V domains shown)
VH: B1 VH with F27E, Y50E, L100E
VL: B1 VL with D29V, G64A, T91R
notes: Kabat positions; also called P1-064490-1; P1-064490-2

Kd [2]: 0.36 nM
kd improvement vs parent [2]: 7.4 fold
koff [2]: 0.00012 s⁻¹
kon [2]: 330000 M⁻¹ s⁻¹
pH 6.0/7.4 KD [3]: 3
pH 6.0/7.4 kd [3]: 11.2
Kd [5]: 1.1 nM
kd improvement vs parent [5]: 80.5 fold
koff [5]: 0.0013 s⁻¹
kon [5]: 1.3e+06 M⁻¹ s⁻¹
B6: P1-065064 (41F11_LC_Mutant: V29D/A64G/R91T) (antibody, V domains shown)
VH: B1 VH
VL: B1 VL
notes: Same printed description as P1-063001 under another ID; also called P1-065064-1

Kd [1]: 0.356 nM and 0.435 nM
koff [1]: 0.00124 s⁻¹ and 0.0012 s⁻¹
kon [1]: 3.47e+06 M⁻¹ s⁻¹ and 2.77e+06 M⁻¹ s⁻¹
Kd [2]: 0.27 nM
kd improvement vs parent [2]: 4.3 fold
koff [2]: 0.0002 s⁻¹
kon [2]: 770000 M⁻¹ s⁻¹
pH 6.0/7.4 KD [3]: 0.9
pH 6.0/7.4 kd [3]: 3.9
Kd [4]: 0.365 nM and 0.32 nM
koff [4]: 0.000178 s⁻¹ and 0.000141 s⁻¹
kon [4]: 488000 M⁻¹ s⁻¹ and 441000 M⁻¹ s⁻¹
Kd [5]: 0.25 nM
kd improvement vs parent [5]: 136 fold
koff [5]: 0.00079 s⁻¹
kon [5]: 3.1e+06 M⁻¹ s⁻¹
B7: P1-063125 (41F11_HC_Mutant: T28P/Y50W/S55E/Y100E) (antibody, V domains shown)
VH: B1 VH with T28P, Y50W, S56E, Y104E
VL: B1 VL with D29V, G64A, T91R
notes: Kabat positions; also called P1-063125-5
